One molecule from patent publication CN113563467A (SHANGHAI PUMING BIOLOGICAL TECH CO LTD, dated 2021) can be followed below.

The target of experiment [1] is T1, 人C5蛋白 in 人血清补体 (Normal Human Serum Complement, Quidel, A112) (human, UniProt P01031 19-1676). The experiment in a line: cell-based or functional assay.
Experiment [2] has as its target T1, 人C5蛋白 in 人血清补体 (Normal Human Serum …). The experiment can be described thus: cell-based or functional assay. This is another data set of the same source.

T1 sequence (P01031 19-1676 limits assumed): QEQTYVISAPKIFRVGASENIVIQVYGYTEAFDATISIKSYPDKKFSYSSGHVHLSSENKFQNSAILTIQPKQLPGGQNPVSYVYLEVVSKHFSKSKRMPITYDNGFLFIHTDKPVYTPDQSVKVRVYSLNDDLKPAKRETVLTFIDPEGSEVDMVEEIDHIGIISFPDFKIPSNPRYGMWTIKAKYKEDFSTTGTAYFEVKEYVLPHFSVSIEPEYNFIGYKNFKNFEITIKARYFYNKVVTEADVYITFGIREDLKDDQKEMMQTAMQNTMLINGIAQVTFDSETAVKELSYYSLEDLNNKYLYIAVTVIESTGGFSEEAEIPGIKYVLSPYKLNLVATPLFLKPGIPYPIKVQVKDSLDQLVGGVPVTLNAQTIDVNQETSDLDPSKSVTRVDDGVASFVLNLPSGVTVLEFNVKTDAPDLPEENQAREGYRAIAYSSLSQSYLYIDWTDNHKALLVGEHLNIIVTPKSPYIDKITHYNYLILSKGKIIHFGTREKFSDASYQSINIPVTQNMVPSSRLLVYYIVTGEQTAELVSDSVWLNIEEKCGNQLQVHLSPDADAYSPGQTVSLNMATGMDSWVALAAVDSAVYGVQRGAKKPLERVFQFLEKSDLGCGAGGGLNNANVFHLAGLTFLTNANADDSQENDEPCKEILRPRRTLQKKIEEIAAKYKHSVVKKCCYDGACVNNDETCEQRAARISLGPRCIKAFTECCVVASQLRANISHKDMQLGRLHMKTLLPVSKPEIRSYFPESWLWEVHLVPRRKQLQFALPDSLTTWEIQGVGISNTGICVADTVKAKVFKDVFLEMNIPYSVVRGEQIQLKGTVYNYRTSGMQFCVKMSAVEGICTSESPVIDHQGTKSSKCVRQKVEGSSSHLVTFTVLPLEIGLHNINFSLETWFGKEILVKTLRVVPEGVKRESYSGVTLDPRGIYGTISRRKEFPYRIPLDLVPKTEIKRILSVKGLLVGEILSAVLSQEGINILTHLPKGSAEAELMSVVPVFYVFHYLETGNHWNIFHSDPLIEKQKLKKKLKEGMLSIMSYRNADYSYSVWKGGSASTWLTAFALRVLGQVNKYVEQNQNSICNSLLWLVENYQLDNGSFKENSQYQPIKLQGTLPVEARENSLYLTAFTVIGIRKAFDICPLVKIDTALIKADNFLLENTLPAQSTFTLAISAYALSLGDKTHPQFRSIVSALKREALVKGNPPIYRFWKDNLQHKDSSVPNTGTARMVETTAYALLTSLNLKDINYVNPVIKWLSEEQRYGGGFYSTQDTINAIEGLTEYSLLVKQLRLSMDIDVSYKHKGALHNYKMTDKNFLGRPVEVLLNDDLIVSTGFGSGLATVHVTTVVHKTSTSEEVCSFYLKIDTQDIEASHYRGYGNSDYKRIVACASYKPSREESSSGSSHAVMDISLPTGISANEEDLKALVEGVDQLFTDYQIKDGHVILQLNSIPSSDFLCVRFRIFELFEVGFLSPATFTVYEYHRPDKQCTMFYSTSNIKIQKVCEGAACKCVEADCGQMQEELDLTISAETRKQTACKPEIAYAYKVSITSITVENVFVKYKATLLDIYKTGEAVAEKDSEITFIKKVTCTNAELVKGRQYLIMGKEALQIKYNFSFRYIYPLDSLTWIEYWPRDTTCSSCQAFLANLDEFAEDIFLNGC

B1: Ref1 (对照抗体依库珠单抗可变区，hIgG1/hIgG-Kappa) (antibody, V domains shown)
VH: QVQLVQSGAEVKKPGASVKVSCKASGYIFSNYWIQWVRQAPGQGLEWMGEILPGSGSTEYTENFKDRVTMTRDTSTSTVYMELSSLRSEDTAVYYCARYFFGSSPNWYFDVWGQGTLVTVSS
VL: DIQMTQSPSSLSASVGDRVTITCGASENIYGALNWYQQKPGKAPKLLIYGATNLADGVPSRFSGSGSGTDFTLTISSLQPEDFATYYCQNVLNTPLTFGQGTKVEIKR
Consider B1, for which the “IC50(ug/ml), 补体依赖性溶血实验” value in experiment [1] stood at 8.73 µg/mL. In experiment [2], the “EC50(ug/ml), 补体依赖性细胞毒性(CDC)阻断分析” value is 2.63 µg/mL.
